Data published in the nanobody polyreactivity screen of Harvey et al. (2022).

Assay: yeast display, Sf9 membrane polyspecificity reagent, FACS + sequencing; frameworks hold sequencing errors
Procedure, shortened: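 Galactose induction of a Saccharomyces cerevisiae BJ5465 synthetic nanobody display library ran 36–48 hours. The cells were then stained for 1 hour at 4 °C with 10% biotinylated, detergent-solubilized Sf9 membrane reagent, pulled down on streptavidin microbeads and FACS-sorted into low and high (top ~1%) gates on expression and reagent-binding fluorescence. Labels for polyreactivity follow the gate of origin.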

Sequence | polyreactivity (PSR sort gate)
QVQLVDSRGGLVQAGRSLRLSCAASGIIFFAYAMGWYRQAPGKERELVAAISSSGGRTYYADSVKGRFTISRDKAKNTVYLQMNSLKPEDTAVYYCNARWHGSFDYWGQGTQVTVSS | low polyreactivity
QVQLVDSRGLLVQAGGSLRLSCAASGSTYSYYAMGWYRQAPGKERELVAAITRGGSTYYADSVKGRFTISRDNAKNTVYLQMNSLKPEDPAVYYCSATHVSRRWGMDYWGEGTQVTVSS | high polyreactivity
QVQLVDSVGGLVQAGGSLRLSCAASGRTFSNYAMGWYRQAPGKERQLVAAISGTGDNTYYADSVKGRFTISRDNAKNTVYLQMNSLKPEDTAVYYCKTVYYGWPRRYGYWGQGTQVTVSS | high polyreactivity
QVQLVDTGAGLVQAGGSLRISCAPSGNIFVDNVMGWYRQAPGKERELVAAIDYSGGSTYYADSVKGRFTISRDNAKNNVYLQMNSLKPEDTAVYYCNARTYYGFGMDFWGQGTQVTVSS | low polyreactivity
QVQLVDTGGGFVQAGGSLRLSCAASGRTFPYYAMGLYRQAPGKERELVAAMTRGVRTQYADSVKGRFTISRDNAKNTVYLQMNSLKPEDTAVYYCAREDWGSYSDMDSWGQGTQVTVSS | low polyreactivity
QVQLVEAGGGLGQAGGSLRLSCAASGFTFYRYARGWYRQAPGKERELVAAISSSGGRTYYADSVKGRFTISRDTAKNTVYLQMNSLKPEDTAVYYCNVVRLQSYYGPFDYWGQGTQVTVSS | high polyreactivity
QVQLVEAGGGLVQAGGRLRLSCAASGIIIVPYTMGWYRQAPGKERELVAAISRSGGRTYYADSVKGRFTISRDNAKNTVYLQMNSLKPEDTAVYDCNKRSLYYGYYLYYRMDYWGQGTQVTVSS | high polyreactivity
QVQLVEAGGGLVQAGGSLRFSCAASGYIVRSYAMGWYRQAPGKERELVAAITRSGGSTYYADSVKGRFSISRDNAQNSVYLQMNSLKPEDTAVYYCTAKRFRTGFDYWGQGTQVTVSS | low polyreactivity
QVQLVEAGGGLVQAGGSLRLSCAASGITCRNDAIGWYRQAAGKERELVADITTGGSTYADSVKGRFTISRDNAKNTVYLQLISLKPEDTAVYYFAADRDFRTPRLYYWGQGTQVTVSS | low polyreactivity
QVQLVEAGGGLVQAGGSLRLSCAASGLTFTVYAMGWYRQAPGKERELVAAITGSGTSTYYADSVKGRFTISRDNAKNTVYLQMNSLKPEDTAVYDCAADLYYYGFFWDFGDGFDYWGQGTQVTVSS | low polyreactivity
QVQLVEAGGGLVQAGGSLRLSCAASGQIFRKNARGWYSQAPGKERELVAAINSGGSTKYADSVKGRFTISRDNAKNTVYLQMNSLKPEDTAVDYCAARGRYGVPPGRAHDNWRQGTQVTVSS | high polyreactivity
QVQLVEAGGGLVQAGGSLRLSCAASGRIFYSNAMGWCRQAPGKERELVAAITWRGGSTYYADSVKGRFTISRDNAKNTVYLQMNSLKPEDTAVYYCATDGYDDTHYYYLGQGTQVTVSS | low polyreactivity
QVQLVEAGGGLVQAGGSLRLSCAASGYTFGPNAMGWYRQAPGKEREFVAAISWSGTSTYYADYVKGRFTISRDNAKNTDYLQMNSLKPEDTAVYYCAARSYRYVSRREYWGQGTLVTVSS | high polyreactivity
QVQLVEAGGGLVQAGGSLRLSCASSGRIFNLYAMALYRQAPGKERELVAAINWSGDRTSYADSVKGRFTISRDNAKNTVYLQMNSLKPEDTAVYYCAAEYGLGDDTAYGYWGQGTQVTVSS | low polyreactivity
QVQLVEAGGGLVQAGGSLRLSGAASGSIFDYNAMGWYRQAPGKERELVASISYSGGSTYYADSVKGRFTISRDTAKNTVYLQMNSLKPEDTAVYYCNARFYWRWHTAYDYWGQGTQVTVSS | high polyreactivity
QVQLVEAGGRLVQAGGSLRLSCAASGITFTYYAMGGYRQPPGKDMELVAAISWSGGSTDYADSVKGRFTISRDNAKNTVYLQMNSLKPEDTAFYYCAATFSRFAYYYWGQGTPVTVSS | high polyreactivity
QVQLVEAGRGLVHAGCSLRLSCASSGNIFANYSMGWYRQAPGKERELVAAIRWSASRTYYADSVKGRFTISRDNAMNTVYLQMNSLKPEDTAVYYCAATIDTLWDYYYDYWGQGSQVTVSS | high polyreactivity
QVQLVELGGGLVQAGGILRLSCAASGSIFSWNDMGWYRQAPGKERELVAAITSGGSTYYADSVKGRFTISRDNAKNTVYLQMNSLKPEDTAVYYCAAGQDLHDFDYWGQGTQVTVSS | low polyreactivity
QVQLVELGGGLVQAGGSLRLSCAASGSTFEVYAMGWYRQAPGKERELVAVINVSDGSTYYADSVKGRFTISRDNAKNTVYLQMNSLKPEDTAVYYCAAYRKGKLRMEYWGQGTQVTVSS | low polyreactivity
QVQLVERGGGLVQAGGSLRLSCAASGRIFYVNTMGCYRQAPGKERELVATISSAASTNYADSVKGRFTISRDHAKNTVYLQMNSLKPEETAVYYCNAALYKEYYYWGQGTQVTVSS | low polyreactivity
QVQLVESAAGLVQAGASLRLSCAASGRTSTQNAMGWYRQAPGKERELVAAITTGGGSTYYADSVKGRFTISRDNAKYTVYLQMNSLKPEDTAVYYCAARTPQRSEWTQYGYWGQGTQVTVSS | low polyreactivity

Sequence | polyreactivity (PSR sort gate)
QVQLVESAAGLVQAGGSLRLSCAASGITFFQYTMGWYRQAPGKERELVAAISTSGARTYYADSVKGRFTISRDNAKNTVYLQMNSLKPEDTAVYYCAARTWRRPYYRPRYEYWAQGTQVTVSS | high polyreactivity
QVQLVESAAGLVQAGGSLRLSCAASGRTFQYNAIGWYRQAPGKETELVAAISSSGGSTYYADSVKGRFTISRDNAKNTVYLQLNSLKPEDTAVYYCNAYSQSWNFYGDGDYWGQGTQVTVSS | low polyreactivity
QVQLVESAAGLVQAGGSLRLSGAASGRIFRYYAMGCYRQAPGKEREFVAGITWSGGRTYYADSVKGRFTISRANAKNTVYLQMNTLKREDTAVYYCAADGWGYSFQWQDHDYWGQGTQVTVSS | low polyreactivity
QVQLVESAGGGVQAGGSLRLSCPASGIIFVPNTMGWYRQAPGKEREFVASISRRGGNTNYADSVKGRFTISRDNAKNTVYLQMNSLKPEDTAVYYCAKYSSSEGKYDYWGQGTQVTVSS | high polyreactivity
QVQLVESAGGIVQAGGSLRLRCAASGRTVVNSMGWYRQAPGKERELVAAISTNGGRTYYADSVKWRFTISRDNAKNTVYLQMNSLKPEDTAVYYCAKVLGIRPTYYYWGQGYQVTVSS | high polyreactivity
QVQLVESAGGLDQAGGSLPLSCAASGRIFRYNAMGWYRQAPGKERELVSAITWNGASTFYADSVKGRFTISRDNAKNSVYLLMNSLKPEDTAVYYCAYVRDFSGYWLWSYNLYDYWGQGTKVTVSS | high polyreactivity
QVQLVESAGGLDQAGGSLRLSCAASGFTFSVYVMGWYRQAPGKERELVASISKRGGSTTYADSVKGRFTISRDNAKNTVYLQMNSLKPEDTAVYYCAALGPGYYWGQGTQVTVSS | high polyreactivity
QVQLVESAGGLGQAGGSLRLSCAASGRIIVRNTMGWYRQAPGKDRELVARITGRGGTTYYADSVKGRFTISRDYAKNPVYFQMNSLKPEDTADYYCKAGKYLRLDPVGPNYSRKYGYWGQGTQVTVSS | low polyreactivity
QVQLVESAGGLLQTGGSLRLSCAASGRTLWYNAMGWYRQAPGKERELVAAISSGGSTNYADSVKGRFTISRDNAKHTVYLQMNSLKPEDTAVYYCAAWLAYSSRYGYWGQGTQVTVSS | low polyreactivity
QVQLVESAGGLVKAGGSLRLSCAAYGSTFSYYTMGWYRQAPGKERELVAAITRRGDSTYADSVKGRFTISRDNAKNTVYLQMNSLKPEDTAVYYCAADASVGVSGMDYWGQGTQVTVSS | low polyreactivity
QVQLVESAGGLVLAGGSLRLSCAASGYTVVRYAMGWYRQEPGKERELVAAISRSGGSTYYADSVKGRFTISRDNANNTVYLQMNSLNPEDTAVYYCNAYPYSYYDYDYWGQGTQVTVSS | high polyreactivity
QVQLVESAGGLVQAGARLRLSCAASGFTFQYYALGWYRQAPGKERELVATISTSGGNTYYADSVKGRFTITRDNAKNTVYLQMNSLKPEDTAVYYCAARRYRASSRGYGYWGQGTQVTVSS | high polyreactivity
QVQLVESAGGLVQAGGCLRLSCAACGSIFLYNAMGWYRQAPVKERELVAGITGGGGTNYADSVKGRFTISRDNAKNTVYLQMNSLKPEDTAVYYCAADPSGQFPYSYYNYDYDYWGQGTQVTVSS | low polyreactivity
QVQLVESAGGLVQAGGILRLSCAASGRIFPYYDMGWYRQAPGKERELVAAITWNGGSTYYADSVKGRFTISRDNANNTVYLQMNSLKPEDTAVYYCAVEPYYYGEDYWGQGTQVTVSS | low polyreactivity
QVQLVESAGGLVQAGGRLRLSCAASGSTFGIYAMGWYRQAPGKERELVAAISSGGSTNYADSVKGRFTISRDNAKNTVYLQMNSLKPEDTAVYYCAVESVYEYGGYVDSAYDYWGQGTQVTVSS | low polyreactivity
QVQLVESAGGLVQAGGSHRLSCAASGNIFYYYRMGWYRQEPGKESEFVAAISTSGGNTYYADSVKGRFTISRDNAKNTVYLQINSLKPEDTAVYYCAADDWPWGDAGVDYWGQGTQVTVSS | low polyreactivity
QVQLVESAGGLVQAGGSHRLSCPASGSIFDYNPMGWYTQAPGKESELVAAITSGGSTNYADSVKGRFTISRDNAKNTVYLHMNSLKPEDTAVYYCAADHDYYPSNLDFWGQGTQVTVSS | low polyreactivity
QVQLVESAGGLVQAGGSLRLICAASGSIFVKYAMGWYRQATGKERELVAAISRSGGSTYYADSVKGRFTISRDNAKNTVYLQMTSLKPEDTAVYYCAADGFRGDMYYWGQGTQVTVSS | low polyreactivity
QVQLVESAGGLVQAGGSLRLICAASGSIVASYPKGWYRQAPGKERELVAAISDGGGRTYYADSVKGRFTISRDNAKNTVYLQMNSLKPEDTAVYYCAAYAVYTYRRARVYWGQGTQVTVSS | high polyreactivity
QVQLVESAGGLVQAGGSLRLICDASGSTFGYYAIGWYRQAPGKEREVVAVINKSGGRTYYADSVKGRFTISRDNAKNTVYLQMNSLNPVDTAVYFCATRVTSTRHDYWGQGTQVTVSS | high polyreactivity
